# Results reported in a protein production outcome set (Wang et al. 2014).
# Experiment: label from the status in PepcDB records
row,Sequence,protein production
1,MKITDISGKIETLVDSLRDMSPTRVRSSFSDEHVSENDDERSSWIALHPSALDMFEQIMRDAEGKQIIMFLDYDGTLSLITEDHDRAYITDEMREVVKEVATYFKTAIISGRSTDKVQSFVKLTGIHYAGSHGMDIKGPTNTDQSNQEEVMFQPASDYLPMIDEVVNVLKEKTKSIPGATVEHNKFCLTVHFRRVDETGWAALAEQVRLVLIDYPKLRLTQGRKVLELRPSIKWDKGKALEFLLNSLGIAESKDVLPVYIGDDRTDEDAFKVLCERGQGFGIIVSKTIKETYASYSLQDPSQVKEFLERLVKWKKQTLGE,failed
2,MKITLIIPTYNAGSIWPNVLDAIKQQTIYPDKLIVIDSGSKDETVLLASDLKNISIFNIDSKDFNHGGTRNLAVTKTLDADVIIFLTQDAILADSDAIKNLVYYFSDPLIAAVCGRQLPHKDANPLAVHARNFNYSSKSIVKSKADIEKFGIKTVFMSNSFAAYRRSVFEELSGFPEHTILAEDMFMAAKMIQAGYKVAYCAEAVVRHSHNYTPREEFQRYFDTGVFHACSPWIQRDLGGAGGEGFRFVKSEIQFLLKNAPFWIPRALLTTFAKFLGYKLGKHWQSLPLSTCRYFSMYKSYWNNIQYSSSKEIKLEHHHHHH,failed
3,MKIVVNNQSTLAAELMIVAQENLQKLVEQTKCPNSKALLDRRIFKAKSGEVLPLLHGDKIVILLGLGLRQDFIASEYDKIIAKAAEQLKKLAIKEISVDIDYAFENDNVKQFTLDTVRALISETYVFDQLKTEKENYSLEQIELVYSGDQDIEDSAKIGSAIACGQNYAKDLQNLPANICTTDYMLNEARELTSKYATFSLDYLDQDAMAELGMGCALAVGRGSYMSNYTVCMEYKGGNEGDAPIVLVGKGLVFDNGGICIKQAAGMDSMKMDMGGVAAVMGTMKAIAMLNLPVNVVGVMGLAENAVDARSYRPGDVLKSMKGITVEVSNTDAEGRLVLCDTLTYIGKYKPKAVIDLATLTGAMIISLGDAYSGMFANSDKLANSLEQAANASNDLIWRLPLHKPYLKKIESKVADMDNCGRDRSAGSIVAALFLSKFTEDYEWAHLDIAGSAMGDFASCKASGRPVPLLVHYLISQAK,not failed
4,MKIWTSEHVFDHPWETVTTAAMQKYPNPMNPSVVGVDVLDRHIDPSGKLHSHRLLSTEWGLPSIVKSLIGAARTKTYVQEHSVVDPVEKTMELKSTNISFTNMVSVDERLIYKPHPQDPEKTVLTQEAIITVKGVSLSSYLEGLMASTISSNASKGREAMEWVIHKLNAEIEELTASARGTIRTPMAAAAFAEK,failed
5,MKIYHKFLLYQNKLLKPYVRILLGLVEALTYLASLLLIVGVVYEHGFPLSPVEVQQIQILYKAVWIIFLIDVTLHISLEYRNTKKQYRRLAWILSVLLYLTLVPVIFHRPEEEGAILQVWEFLHGKFYHLILLLVFSLLNLSNGLVRLLGRRTNPSLILAVSFMAIILIGTGLLMLPRCTVNGITWVDSLFTATSAVCVTGLVPVDVSTTFTTSGLVVIILLIQIGGLGVMTLTSFFAMFFMGNTSIYNQLVVRDMVSSNSLGSLLSTLLYILGFTLVIEGIGMVSIWFSIHDTLGMNLEEELAFAAFHSISAFCNAGFSTLSGNLGNSMVMTNHNWLFISVSLLIILGGIGFPILVNFKDIVLYHLRHVWTFVRTRKLERHKMPHLYNLNTKIVLIMTFLLLLIGTLAILAFEWNASFAGMSVADKWTQAFFNATCPRTAGFSSVDLASLSVQTLLVYLFLMWVGGGSQSTAGGVKVNAFAVVVLNLVAVLRGSERVEVFGRELSHDSIRRSNATVVMSLGVLFLFIFILSILEPKASLLALTFECVSALSTVGSSLNLTPQLCDASKLLVSLLMFIGRVGLITLMLGIVKQKKNTKYRYPSDNIIIN,failed
6,MKIYLVGGAVRDALLGLPVKDKDWVVVGATPQEMLDAGYQQVGRDFPVFLHPQTHEEYALARTERKSGSGYTGFTCYAAPDVTLEADLQRRDLTINALARDDAGQIIDPYHGRRDLEARLLRHVSPAFGEDPLRVLRVARFAARYAHLSFRIADETLALMREMTAAGELEHLTPERVWKETENALTTRNPQVYFQVLRDCGALRVLFPEIDALFGVPAPAKWHPEIDTGVHTLMTLSMAAMLSPQLDVRFATLCHDLGKGLTPKNLWPRHHGHGPAGVKLVEQLCQRLRVPNDLRDLAKLVAEYHDLIHTFPILQPKTIVKLFDAIDAWRKPQRVEQIALTSEADVRGRTGFEASDYPQGRWLREAWQVAQAVPTKEVVEAGFKGIEIREELTKRRIAAVANWKEKRCPNPAS,failed
7,MKKALISTLFGVSLAFAKPYTIDKANSSVWFEVKHFTFNETRGAFDNFDGKIDLEPNTKMLSVFEGNIDVKSVNTRDRKRDNHLKTADFFDVVKYPKGSFKMTKYEDGKIYGDLTLRGVTKPVVLEAKIQAPLQNPMNKKEFMVLQAEGKINRKDFGIGKTFSDAVVGDEVKIELKLEAYAQ,failed
8,MKKCFELTPCLLAFLCITSCVEDVDNERSKGMFSASQSGFSTIEVYDLGPLNKIDLSIAKAGLEDTGGTVTFSVEQSLLDSLNNADGTSYQLLPPECYTIENATYSVSPGGDRRVTGGSLVYDPHKIYNLCGFDELKYVLPLRVSSTGTPMNSDRTATLYGFIVKEAIVRLASTGGDFVVEGGTTTSPMNLDTEISFENEWDLTTSFATKGADYVDNYNSANSTYYIPLPSDFYTLPDVTIAKGKTTGGSAISLLGETLPPGNYLLPVSLGGLSGQGDASINIDKETVANYFVIKQGGPINRDHWTVTANTEEKTGEVSAAYPHNGQTISLIDGEINTFWHSKWQGGEVAPPYEIILDMGKENSVSQLGLIARQNALTSMNLEIYAGDDGETWNLIGKYFFDGSIKTEQMVPVKACDARWIRIYIPTLGSGSSVGHLAEIYVYGTDK,failed
9,MKKEIASHLLEIGAVFLQPNDPFTWSSGMKSPIYCDNRLTLSYPKVRQTIAAGLEELIKEHFPTVEVIAGTATAGIAHAAWVSDRMDLPMCYVRSKAKGHGKGNQIEGKAEKGQKVVVVEDLISTGGSAITCVEALREAGCEVLGIVSIFTYELEAGKEKLEAANVASYSLSDYSALTEVAAEKGIIGQAETKKLQEWRKNPADEAWITA,not failed
10,MKKFFKLKENKTTVRTEVLAGITTFFAMSYILFVNPSILSQTGMPSQGVFLATIIGSIAGTLMMGLYANIPYAMAPGMGLNAFFTYTVVFSLGYTWQEALAMVFICGIISIVITLTRVRRMIIDEIPDSLKKAISAGIGIFLTYIGLKNAGLLNFAIDPGTYSVSGKGAAKGLASITANSSATPSLVNFNNPAVLVAVIGIIITAFFIIKNIKGGVILSIIVTTVIALLAGVVDLSKIDFSANNPVAAVKDLGTIFGAALGNKGLGALFSDAGRIPEVLMTILAFALTDIFDNVGTLIGTGAKAGIFDVTSESTSSGLQNKMDKALFSDMVGTTVGAVAGTSNVTTFVESAAGIGAGGRTGLTAVVVALLFAVSSFFSPLLAIVPTQATAAVLLIVGIMMLSSLKDIEWSDMSQAIPAFFATVFMGLAYSITQGIATGFLFYTFSKLIKKEAKDIHPIIWVLDVLFILNFISLAVL,failed
11,MKKFILIMVLGSALFTGGAIYDGIDNQDMTQPTIHFWEKNPMKLNLYAKGQCTYYVFDRIRQDGNMISNRWGDAKYWANEASKEGYKVNDNPSVGSILQYPKGQHGHVAYVDKVNHDGSLTVFDMNYRKPYEVTKRTVYEYQVDEFNYIHPKKNQSENA,failed
12,MKKFNIKSLTLLIVLLPLIVNANNIDSHLLEQNDIAKYVAQSDTVGSFFERFSALLNYPIVVSKQAAKKRISGEFDLSNPEEMLEKLTLLVGLIWYKDGNALYIYDSGELISKVILLENISLNYLIQYLKDANLYDHRYPIRGNISDKTFYISGPPALVELVANTATLLDKQVSSIGTDKVNFGVIKLKNTFVSDRTYNMRGEDIVIPGVATVVERLLNNGKALSNRQAQNDPMPPFNITQKVSEDSNDFSFSSVTNSSILEDVSLIAYPETNSILVKGNDQQIQIIRDIITQLDIAKRHIELSLWIIDIDKSELNNLGVNWQGTASFGDSFGASFNMSSSASISTLDGNKFIASVMALNQKKKANVVSRPVILTQENIPAIFDNNRTFYVSLVGERNSSLEHVTYGTLINVIPRFSSRGQIEMSLTIEDGTGNSQSNYNYNNENTSVLPEVGRTKISTIARVPQGKSLLIGGYTHETNSNEIISIPFLSSIPVIGNVFKYKTSNISNIVRVFLIQPREIKESSYYNTAEYKSLISEREIQKTTQIIPSETTLLEDEKSLVSYLNY,failed
13,MKKFVTLLLCMLPVSLFAQVNDGIRQAMDNYDYETVVTLIEPDCQDSLLLITKAQALKAMNRYPEAIGVLNSLILKDSTNTKVLIDLAECYKLTGNSRRAANCYQKAMNLQPENKFFRLQFIRSLLASEDYEEARTACHGWLERDSLSATGYKYLGQAYEGLQDAASAFLSYNIAYRRDSLDAQTVARIAGIFNNNQQFKDAVDVTEVYRLSDTTNIDVNRQNAKAYCMLKEYGTAVKRYESLKELGDRSFLTLYYLGVSHYGDNWFYGAYDNLKEAYQKNPMDVNVLYYLAKASARTSWKKEGVEYMEEAFRIAVPSDSMMVRLYDGLVECYDYAGDTKKEVEALEKLYIYTKKNSILYKIACLYDWKEDEKNAIRYYRKYMATVSEDQRYALDEDGNPVEDRITLYQQAWKRIKKIKEEGFFRGDIPTKSFPVEKKDTLALRHAK,failed
14,MKKGFSALVEHNGYRVLVDTGTDGKILLNNMEGLGIDPNSIDALFLTHGHYDHTGGIAELLKARKDTLDVYAHPRIFEKRIALKPKRRDIGIPFSQEELESLGAIFHLNDKALEFLPGLISSGEIKRETWDRAVGYLLNNEKDPVRDDMALLIDLGDKIAVITGCGHSGILNIAKHAVEISKKPIRALIGGFHLRGASITILEDAVRGLKELNVEMLYPGHCTGIDEYAYLRMKLKAEHLNVGKEIVIK,failed
15,MKKGRFKRNWPIILFGIIVFIFSFYFKISPKSLKNFTDIMSASLSFSAIVTAIFFASFSLIPTSGSNKLVVMMEDLGTEIKIMDRLLVATFLSFISSLLSFISLFFSKTDTDLISILVVSSWLSSTVMMFLSSFFVLRTLILLVETYNNFKNK,failed
16,MKKIVILIISVLLLGGIIGGVYYFKNANKIGADASYVKITKDPTKSNEISFNNNYTLPAYDENGKETEVTFSADKELRKGAYLKLYIKEDKGVTSFEEVPEKEVPAKAAEKLKLEHHHHHH,failed
17,MKKKDMNKQVKIQDAVAAIILAEGPAGVSTTKVAKRVGIAQSNVYLYFKNKQALIDSVYARETNRILSTTDLDRLSDSTIDVTTRIRLYVQQVYDYSLANPDSLTIIQQIKALNGQGMTISAADADPNNIVANLLTAAIDAKVIKQLPVSLHMGVVFSTIHTHTTNISKGRYAQDQYTFGDIFQMIWDAMKQD,not failed
18,MKKKKAHAAGAGPKLSVTNPPRTFFEDTLALFNSRRFDLLDQKINEAVNKWPNHAVVWKAIGVIMLMEGRFKEAIEPLTTAANLAQGDAQLHHNLGVAYLRLEQYEKAVPWLQRATSLKPDYAQAFANLGIAQAEIGLLQAAESNYRTALKINKDFPEALNNLGNVLNDQKRYGEAEECFRRALVLKPDFAEALNNLGTSLKGLNRLEEAETTYRKSLSLMPDYTRAHIGLGHTLFKLRQPDKAAASFRRAIELSPYELEAHDGLSMTLGDTVPLWHLPMMNDKPRNDAYFNALQAAVTPETRVLEIGTGSGLLSMMSARLGARHVTTCEVVTAIAETAASIVKDNGFADQVTVIPKLSTTLEVGVDLEERADLLVSEILSSEFLGEGVLSSIEDAKRRLLKPGARIIPARGSVRIALFGGRDIEMNVRVDEVYGFDLSRFNDIVPPKQYVGRNDLNIELLSDGIGAIHFDFMGTDHFPTSRSYGIDVPITRAGRCCGVIQWIRLEMDDTFVFENHPAERNVASGWQHCVYLFKTPVDVQPGQVAQIIASHDIRTCWFFLKKIVTP,failed
19,MKKKLKLTSLLGLSLLIMTACATNGVTSDITAESADFWSKLVYFFAEIIRFLSFDISIGVGIILFTVLIRTVLLPVFQVQMVASRKMQEAQPRIKALREQYPGRDMESRTKLEQEMRKVFKEMGVRQSDSLWPILIQMPVILALFQALSRVDFLKTGHFLWINLGSVDTTLVLPILAAVFTFLSTWLSNKALSERNGATTAMMYGIPVLIFIFAVYAPGGVALYWTVSNAYQVLQTYFLNNPFKIIAEREAVVQAQKDLENRKRKAKKKAQKTK,failed
